Where two headings read alike, the source gives them in different places. Each block holds one binder with its values, some of them ahead of it.
What was measured:
[1] = biological target: T1, mouse ICOS-mFc (Chimerigen) (mouse, UniProt Q9WVS0 21-144); test: HTRF neutralisation of mouse B7-H2 binding to mouse ICOS-mFc, hamster IgG in the IgG1 series; SD 0 (n = 3)
T1 construct: bought; also called mouse ICOS receptor; not shown: mouse Fc of a bought reagent
T1 sequence (looked up): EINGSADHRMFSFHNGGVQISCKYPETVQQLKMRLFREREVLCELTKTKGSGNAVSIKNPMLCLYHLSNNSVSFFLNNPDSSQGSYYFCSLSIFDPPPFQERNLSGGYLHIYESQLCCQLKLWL

[2] = biological target: T1, mouse ICOS-mFc (Chimerigen); test: HTRF neutralisation of mouse B7-H2 binding to mouse ICOS-mFc, IgG1 series; same result as the 6th table, row 13, column 3 with more digits
[3] = biological target: T2, human ICOS-mFc (Chimerigen) (human, UniProt Q9Y6W8 21-141); test: HTRF neutralisation of human B7-H2 binding to human ICOS-mFc, hamster IgG in the IgG4.PE series; SD 3.8 (n = 4)
T2 construct: bought; also called human ICOS receptor; not shown: mouse Fc of a bought reagent
T2 sequence (looked up): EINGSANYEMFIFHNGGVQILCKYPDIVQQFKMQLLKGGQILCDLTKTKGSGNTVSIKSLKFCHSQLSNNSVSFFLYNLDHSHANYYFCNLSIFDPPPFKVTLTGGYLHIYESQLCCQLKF

[4] = biological target: T2, human ICOS-mFc (Chimerigen); test: HTRF neutralisation of human B7-H2 binding to human ICOS-mFc, hamster IgG in the IgG1 series; SD 0.3 (n = 4)
[5] = biological target: T1, mouse ICOS-mFc (Chimerigen); test: HTRF neutralisation of mouse B7-H2 binding to mouse ICOS-mFc, hamster IgG in the IgG4.PE series; SD 0.1 (n = 3)
[6] = biological target: T3, mouse ICOS expressed on CHO-S cells (mouse, UniProt Q9WVS0 21-141); test: flow cytometry on CHO-S cells expressing mouse ICOS
T3 construct: full length mouse ICOS (NCBI NP_059508.2) was transfected; also called mICOS CHO; Mouse ICOS CHO
T3 sequence: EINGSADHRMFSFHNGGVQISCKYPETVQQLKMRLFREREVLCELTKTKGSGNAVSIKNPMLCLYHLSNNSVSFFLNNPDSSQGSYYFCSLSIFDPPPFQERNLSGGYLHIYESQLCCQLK

[7] = biological target: T4, human ICOS expressed on cells (human, UniProt Q9Y6W8 21-199); test: flow cytometry on CHO-S cells expressing human ICOS
T4 construct: also called hICOS CHO; Human ICOS CHO
T4 sequence: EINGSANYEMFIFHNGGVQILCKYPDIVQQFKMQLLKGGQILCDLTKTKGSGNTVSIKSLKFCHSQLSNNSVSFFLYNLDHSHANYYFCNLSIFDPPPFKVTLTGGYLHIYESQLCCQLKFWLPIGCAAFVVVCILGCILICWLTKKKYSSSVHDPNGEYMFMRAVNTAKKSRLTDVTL

[8] = biological target: T4, human ICOS expressed on cells; test: FACS screen on CHO-S cells expressing human ICOS
Protocol: (§1) BCT supernatants and HEK293 expressed antibodies from Example 5 were tested for ability to bind to CHO-S cells expressing human or mouse ICOS.
(§2) CHO-S cells expressing human or mouse ICOS (see Example 2), were diluted in FACS buffer (PBS 1% BSA 0.1% sodium azide) and were distributed to a 96-well, V-bottom plate (Greiner) at a density of 1×10⁵ cells per well. Cells were washed with 150 μL PBS and centrifuged at 300 g for 3 minutes. For supernatant screening, supernatant was aspirated and 150 μL PBS added. This wash step was repeated. 30 μL BCT undiluted supernatant or 50 μL of reference antibody or control antibody diluted to 5 μg/ml in BCT media was added to the washed cells. Cells were incubated at 4° C. for 60 minutes. 150 μL FACS buffer was added and cells washed as described above. To detect antibody binding, 50 μL of goat anti-mouse APC (Jackson ImmunoResearch) diluted to 2 μg/ml in FACS buffer was added to cells. Cells were incubated 4° C. for 60 minutes. Cells were washed twice with 150 μL FACS buffer, centrifuging at 300 g for 3 minutes after each wash step and aspirating supernatant. Cells were fixed by addition of 25 μL 4% paraformaldehyde for 20 minutes at room temperature. Cells were washed once as above and resuspended in FACS buffer for analysis. APC signal intensity (geometric mean) was measured by flow cytometry using a BD FACS Array instrument. Data were plotted as geometric mean values without further calculation.

[9] = biological target: T3, mouse ICOS expressed on CHO-S cells; test: FACS screen on CHO-S cells expressing mouse ICOS
Protocol: as §1, §2

[10] = biological target: T4, human ICOS expressed on cells; test: cell-based or functional assay
[11] = biological target: T4, human ICOS expressed on cells; test: cell-based or functional assay; remark: listed apart in the source
[12] = biological target: T4, human ICOS expressed on cells; test: cell-based or functional assay; remark: listed apart in the source

- IC50 [1]: 0.1 nM
- IC50 [2]: 0.14 nM
- IC50 [3]: 2.8 nM
- IC50 [4]: 1.2 nM
- IC50 [5]: 0.2 nM
B1: Anti-ICOS antibody C398.4A (hamster IgG) (antibody, V domains shown)
VH: EVQLVESGGGLVKPAGSLTLSCVASGFTFSDYFMHWVRQAPGKGLEWVAVIDTKSFNYATYYSDLVKGRFTVSRDDSQGMVYLQMNNLRKEDTATYYCTATIAVPYYFDYWGQGTMVTVSS
VL: DIQMTQSPSSLPASLGDRVTINCQASQDISNYLSWYQQKPGKAPKLLIYYTNLLADGVPSRFSGSGSGRDYSFTISSLESEDIGSYYCQQYYNYRTFGPGTKLEIK

- fold above average geomean of negative control [6]: > 10 fold
- fold above average geomean of negative control [7]: > 10 fold
B2: CL-61091 (IgG1 format) (antibody, V domains shown)
VH: QVQLMQSGTEVKKPGASVKVSCKTSGYTFTTYGITWVRQAPGQGLEWMGWISAYSGDTDYAQKFQGRVTVTTDTSTNTAYMELRSLKSDDTAVYYCARSSGWPHHYGMDVWGQGTTVTVSS
VL: DIVMTQSPLSLPVTPGEPASISCRSSQSLLHSNGFNYFDWYLQKPGQSPQLLIFLVSNRASGVPDRFSGSGSGTDFTLKISRVEAEDVGIYYCMQALQTPLTFGGGTKVEIK
notes: synthesised and expressed in human IgG1 format in HEK cells; tested as supernatant

- fold above average geomean of hybrid control [8]: > 4 fold
- fold above average geomean of hybrid control [9]: > 4 fold
B3: STIM001 as screened from BCT (human V regions on mouse IgG1 constant region) (antibody, V domains shown)
VH: QVQVVQSGAEVKKPGASVKVSCKASGYTFSTFGITWVRQAPGQGLEWMGWISAYNGDTNYAQNLQGRVIMTTDTSTSTAYMELRSLRSDDTAVYYCARSSGHYYYYGMDVWGQGTTVTVSS
VL: DIVMTQSPLSLPVTPGEPASISCRSSQSLLHSNEYNYLDWYLQKPGQSPQLLIFLGSNRASGVPDRFSGSGSGTDFTLKITRVEAEDVGIYYCMQSLQTPLTFGGGTKVEIK

- fold above average geomean of hybrid control [8]: > 4 fold
- fold above average geomean of hybrid control [9]: > 4 fold
B4: STIM002-B as screened from BCT (mouse IgG1 constant region) (antibody, V domains shown)
VH: QVQLVQSGGEVKKPGASVKVSCKASGYTFTSYGFSWVRQAPGQGLEWMGWISAYNGNTNYAQKLQGRVTMTTDTSTSTAYMELRSLRSDDTAVYYCARSTYFYGSGTLYGMDVWGQGTTVTVSS
VL: DIVMTQSPLSLPVTPGEPASISCRSSQSLLHSDGYNCLDWYLQKPGQSPQLLIYLGSTRASGFPDRFSGSGSGTDFTLKISRVEAEDVGVYYCMQALQTPCSFGQGTKLEIK
notes: as m28

- EC50, primary NK cell ADCC on ICOS-transfected CCRF-CEM cells, 4 h, Donor 4 [10]: ~0.003 nM
- EC50, primary NK cell ADCC on ICOS-transfected CCRF-CEM cells, 4 h, Donor 5 [10]: 0.000895 nM
- EC50, primary NK cell ADCC on ICOS-transfected CCRF-CEM cells, 4 h, Donor 6 [10]: 0.00103 nM
- EC50, primary NK cell ADCC on MJ cells, 2 h, Donor 1 [11]: 0.00233 nM
- EC50, primary NK cell ADCC on MJ cells, 2 h, Donor 2 [11]: 0.0358 nM
- EC50, primary NK cell ADCC on MJ cells, 2 h, Donor 3 [11]: 0.101 nM
B5: STIM003 human IgG1 (antibody)
heavy: not shown
light: EIVLTQSPGTLSLSPGERATLSCRASQSVSRSYLAWYQQKRGQAPRLLIYGASSRATGIPDRFSGDGSGTDFTLSISRLEPEDFAVYYCHQYDMSPFTFGPGTKVDIKRTVAAPSVFIFPPSDEQLKSGTASVVCLLNNFYPREAKVQWKVDNALQSGNSQESVTEQDSKDSTYSLSSTLTLSKADYEKHKVYACEVTHQGLSSPVTKSFNRGEC

- fold above average geomean of negative control (HTK888) [8]: > 4 fold
- fold above average geomean of negative control (HTK888) [9]: > 4 fold
B6: STIM005 as screened from BCT (mouse IgG1 constant region) (antibody, V domains shown)
VH: QVQLVQSGAEVKKPGASVKVSCKASGYTFNSYGIIWVRQAPGQGLEWMGWISVHNGNTNCAQKLQGRVTMTTDTSTSTAYMELRSLRTDDTAVYYCARAGYDILTDFSDAFDIWGHGTMVTVSS
VL: DIQMTQSPSSLSASVGDRVTITCRASQNINNFLNWYQQKEGKGPKLLIYAASSLQRGIPSTFSGSGSGTDFTLTISSLQPEDFATYICQQSYGIPWVGQGTKVEIK
notes: as m28

- EC50, primary NK cell ADCC on ICOS-transfected CCRF-CEM cells, 4 h, Donor 4 [10]: 0.00392 nM
- EC50, primary NK cell ADCC on ICOS-transfected CCRF-CEM cells, 4 h, Donor 5 [10]: 0.00395 nM
- EC50, primary NK cell ADCC on ICOS-transfected CCRF-CEM cells, 4 h, Donor 6 [10]: 0.00375 nM
- EC50, primary NK cell ADCC on MJ cells, 2 h, Donor 1 [12]: 0.121 nM
- EC50, primary NK cell ADCC on MJ cells, 2 h, Donor 2 [12]: 0.529 nM
- EC50, primary NK cell ADCC on MJ cells, 2 h, Donor 1 [11]: 0.121 nM
- EC50, primary NK cell ADCC on MJ cells, 2 h, Donor 2 [11]: 0.529 nM
- EC50, primary NK cell ADCC on MJ cells, 2 h, Donor 3 [11]: 2.92 nM
B7: STIM001 human IgG1 (antibody)
heavy: not shown
light: DIVMTQSPLSLPVTPGEPASISCRSSQSLLHSNEYNYLDWYLQKPGQSPQLLIFLGSNRASGVPDRFSGSGSGTDFTLKITRVEAEDVGIYYCMQSLQTPLTFGGGTKVEIKRTVAAPSVFIFPPSDEQLKSGTASVVCLLNNFYPREAKVQWKVDNALQSGNSQESVTEQDSKDSTYSLSSTLTLSKADYEKHKVYACEVTHQGLSSPVTKSFNRGEC

- fold above average geomean of negative control [6]: > 10 fold
- fold above average geomean of negative control [7]: > 10 fold
B8: CL-74570 (IgG1 format) (antibody, V domains shown)
VH: EVQLVESGGGVIRPGGSLRLSCAASGFTFDDYGMSWVRQAPGKGLEWVSGINWIGDNTDYADSVKGRFTISRDNAKNSLYLQMNSLRAEDTALYYCARDYFGSGSYYNVPF
VL: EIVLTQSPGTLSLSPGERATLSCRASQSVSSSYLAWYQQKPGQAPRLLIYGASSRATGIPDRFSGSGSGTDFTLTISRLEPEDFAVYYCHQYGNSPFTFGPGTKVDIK
notes: as for B2

- fold above average geomean of hybrid control [8]: > 4 fold
- fold above average geomean of hybrid control [9]: > 4 fold
B9: STIM009 as screened from BCT (mouse IgG1 constant region) (antibody, V domains shown)
VH: QVQLVESGGGLVKPGGSLRLSCAASGFTFSDYYMSWIRQAPGKGLEWVSYISSSGSTIYYADSVKGRFTISRDNAKNSLYLQINSLRAEDTAVYYCARDFYDILTDSPYFYYGVDVWGQGTTVTVSS
VL: not shown
notes: as m28

- fold above average geomean of negative control (HTK888) [8]: > 4 fold
- fold above average geomean of negative control (HTK888) [9]: > 4 fold
B10: STIM003 as screened from BCT (mouse IgG1 constant region) (antibody, V domains shown)
VH: EVQLVESGGGVVRPGGSLRLSCVASGVTFDDYGMSWVRQAPGKGLEWVSGINWNGGDTDYSDSVKGRFTISRDNAKNSLYLQMNSLRAEDTALYYCARDFYGSGSYYHVPFDYWGQGILVTVSS
VL: EIVLTQSPGTLSLSPGERATLSCRASQSVSRSYLAWYQQKRGQAPRLLIYGASSRATGIPDRFSGDGSGTDFTLSISRLEPEDFAVYYCHQYDMSPFTFGPGTKVDIK
notes: as m28

- fold above average geomean of negative control (HTK888) [8]: > 4 fold
- fold above average geomean of negative control (HTK888) [9]: > 4 fold
B11: STIM004 as screened from BCT (mouse IgG1 constant region) (antibody, V domains shown)
VH: EVQLVESGGGVVRPGGSLRLSCAASGLTFDDYGMSWVRQVPGKGLEWVSGINWNGDNTDYADSVKGRFTISRDNAKNSLYLQMNSLRAEDTALYYCARDYYGSGSYYNVPFDYWGQGTLVTVSS
VL: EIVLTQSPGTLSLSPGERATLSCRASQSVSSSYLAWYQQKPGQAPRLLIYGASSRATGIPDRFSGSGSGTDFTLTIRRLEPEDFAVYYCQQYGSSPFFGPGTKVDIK
notes: as m28
